This note sets out measurements from the RNAGym collection of RNA variant scans (doi:10.1073/pnas.2313332121).

This sample holds only a part of the variants without activity.

The labels stand for the following.
B1: TPR 5TU (parent)
chain: GGAUCUUCUCGAUCUAACAAAAAAGACAAAUCUGCCACAAAGCUUGAGAGCAUCUUCGGAUGCAGAGGCGGCAGCCUUCGGUGGCGCGAUAGCGCCAACGUUCUCAACUAUGACACGCAAAACGCGUGCUCCGUUGAAUGGAGUUUAUCAUG

Variants of B1 are the subject of the data set. In words: polymerase ribozyme fitness, log enrichment relative to wild type (log ratio); higher = more active; in vitro selection for triplet polymerase activity. The essentials:
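In triplicate, a single round of in vitro selection was run on each mutant library, PCR-built and transcribed, covering one subunit of a heterodimeric triplet polymerase ribozyme. Frozen incubation at −7 °C followed annealing with a biotinylated primer, partner subunit and triplets, and extended constructs were then gel-excised, streptavidin-captured and taken through RT-PCR. Fitness is the logarithm of genotype enrichment over wild-type enrichment, from inverse-variance-weighted replicate averages of Illumina-sequenced inputs and outputs. […] only genotypes with ≥10 input reads and ≥1 read per output were kept.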
A19G C54G G70A A73G G92A A106G C116G A137G: the “polymerase ribozyme fitness (log ratio)” value was at most -4.2.
A20C A97G: the “polymerase ribozyme fitness (log ratio)” value was -0.83.
For A20U G42U U90G C96A G117A A137U, the “polymerase ribozyme fitness (log ratio)” value is at most -4.2.
Consider A20C U56A, for which the “polymerase ribozyme fitness (log ratio)” value is -0.524.
On to A19G U55A C87A A106G G124C G136C C149A A150C, for which the “polymerase ribozyme fitness (log ratio)” value was at most -4.2.
As for A20G A21C G94A U146G, the “polymerase ribozyme fitness (log ratio)” value was -0.812.
Turning to A20C G50A C76G G80C A91U A98G, the “polymerase ribozyme fitness (log ratio)” value is at most -4.2.
On to A20U C54A A66U U77C C116G C125A U148C, for which the “polymerase ribozyme fitness (log ratio)” value is at most -4.2.
Consider A20G C38A C95U C125U G140C, for which the “polymerase ribozyme fitness (log ratio)” value is at most -4.2.
Take A21C C63U A73C C95A A98U: the “polymerase ribozyme fitness (log ratio)” value was -3.29.
Under A19G A20U C36U C96G stands -3.67.
In the case of A21C G59A A113G it was -1.92; in that of A20C C75A C96U C118G G141A, at most -4.2; in that of A19U A22U A47C G80A G86A C87A C95U U104G A120U, at most -4.2.
On to A20U G58C C85U A98U C129U U134C, for which the “polymerase ribozyme fitness (log ratio)” value is -1.85.
For the variant A20C A39C A40G G84U G88U C93A C96A, the “polymerase ribozyme fitness (log ratio)” value was at most -4.2.
For A19U G94C U145G, the “polymerase ribozyme fitness (log ratio)” value is -0.324.
Under A19G A29G G92A C116G stands -3.8; under A20U A49U C93G C103U, at most -4.2.
Consider A19U A52G G94C, for which the “polymerase ribozyme fitness (log ratio)” value is -1.72.
For the variant A19U A91C C129A, the “polymerase ribozyme fitness (log ratio)” value was at most -4.2.
As for A20U G50A C85U, the “polymerase ribozyme fitness (log ratio)” value was -3.83.
For A20C U55A A110G, the “polymerase ribozyme fitness (log ratio)” value is -3.9.
In the case of A19U C51U C54A C85G C132G it was at most -4.2.
Consider A20G G83A C129G, for which the “polymerase ribozyme fitness (log ratio)” value is -3.83.
Under A20U A41G A49U A52C G86C C96G stands at most -4.2.
On to A20C U55A C132A A137G G143A U146G, for which the “polymerase ribozyme fitness (log ratio)” value is at most -4.2.
In the case of A20G C51U G58A C85U A106U, the “polymerase ribozyme fitness (log ratio)” value was -2.76.
For A19U A41C A73U A91C C93U C129G G140U C149U, the “polymerase ribozyme fitness (log ratio)” value is at most -4.2.
With A19U U53C C87G, the “polymerase ribozyme fitness (log ratio)” value is at most -4.2.
Turning to A19G C32A A47C G59C C85U A106C G143C, the “polymerase ribozyme fitness (log ratio)” value is at most -4.2.
As for A20U C87U, the “polymerase ribozyme fitness (log ratio)” value was -2.07.
In the case of A21C G50C G74A C87G U109G, the “polymerase ribozyme fitness (log ratio)” value was at most -4.2.
As to A20U C54G, the “polymerase ribozyme fitness (log ratio)” value is -2.64.
Consider A19U G83U, for which the “polymerase ribozyme fitness (log ratio)” value was -0.798.
On to A19U G83A, for which the “polymerase ribozyme fitness (log ratio)” value is -0.555.
Consider A19U G42C G86U A110G C116A G117U, for which the “polymerase ribozyme fitness (log ratio)” value was at most -4.2.
On to A20U G67C, for which the “polymerase ribozyme fitness (log ratio)” value is at most -4.2.
In the case of A19U C87U, the “polymerase ribozyme fitness (log ratio)” value was -0.845.
Regarding A19U A20C A73G G92U C116A, the “polymerase ribozyme fitness (log ratio)” value is -0.142.
Take A20U G81A A89G C93U C129U: the “polymerase ribozyme fitness (log ratio)” value was -3.56.
For A19G C57A G65A, the “polymerase ribozyme fitness (log ratio)” value was -2.01.
Take A21C C93U A97U C116U C123U: the “polymerase ribozyme fitness (log ratio)” value is -0.404.
Consider A20G A30U C63A C87U U146C, for which the “polymerase ribozyme fitness (log ratio)” value was at most -4.2.
For A19U G71U G83C U146G, the “polymerase ribozyme fitness (log ratio)” value was at most -4.2.
As to A19G G50U U55A C96U U145G, the “polymerase ribozyme fitness (log ratio)” value was -2.18.
Consider A20U C96G, for which the “polymerase ribozyme fitness (log ratio)” value is -0.585.
For the variant A19G A23U A30C G48U U56C A60U C87U, the “polymerase ribozyme fitness (log ratio)” value is at most -4.2.
Under A19C G65A G83C stands -1.84.
Regarding A19U A23C A91U, the “polymerase ribozyme fitness (log ratio)” value was at most -4.2.
With A19U A24U A30U U55A C93G C103G A106C C132G U146C, the “polymerase ribozyme fitness (log ratio)” value is at most -4.2.
For the variant A19C G88A C95A C99U, the “polymerase ribozyme fitness (log ratio)” value was at most -4.2.
On to A19U G25U A49C U55G U56G C85U A98G A106G C118U G133A U145G, for which the “polymerase ribozyme fitness (log ratio)” value was at most -4.2.
Turning to A21C C72G A73U C93U C99G G126U, the “polymerase ribozyme fitness (log ratio)” value is at most -4.2.
As to A19U A26C G46U C93A C95G C108A U151G, the “polymerase ribozyme fitness (log ratio)” value is at most -4.2.
For the variant A19U A28G G50A G68A G94U, the “polymerase ribozyme fitness (log ratio)” value is at most -4.2.
Under A19C C51A G86C stands -3.75; under A19U G50A, -1.63; under A19U G50U, -0.0269.
In the case of A19U G70A U82A U127G it was at most -4.2.
Under A21C C32G G50A C93U A119U stands at most -4.2; under A19G A89C U134G, -3.68; under A19G A41U C57U G84U U146A A147U U151A, at most -4.2.
With A20C C36U A47C, the “polymerase ribozyme fitness (log ratio)” value is -1.91.
A20C C27U C87U G92A U101A: the “polymerase ribozyme fitness (log ratio)” value was -1.49.
Take A20C C36A C51U U55G C69G A73U G81A C96U G141U: the “polymerase ribozyme fitness (log ratio)” value was at most -4.2.
In the case of A20C C85U, the “polymerase ribozyme fitness (log ratio)” value was -1.04.
As for A21C A49U C54U C85G G117A G124U, the “polymerase ribozyme fitness (log ratio)” value is -3.06.
A20C U55A A89G G94C C95A C108G C123G: the “polymerase ribozyme fitness (log ratio)” value was at most -4.2.
On to A19U G58C C87U C95U C116G, for which the “polymerase ribozyme fitness (log ratio)” value was -1.52.
Under A20C A24G A40C C69A C75G C87U G88C U102C G124A G133C U135C A147C stands at most -4.2; under A20U A29G A52G A89U C96A, at most -4.2.
A19U U144A: the “polymerase ribozyme fitness (log ratio)” value was -0.138.
Turning to A20U A113U, the “polymerase ribozyme fitness (log ratio)” value is -3.74.
In the case of A19G A91C C116A G141A U145G, the “polymerase ribozyme fitness (log ratio)” value is at most -4.2.
In the case of A19U A60U C93U C114U, the “polymerase ribozyme fitness (log ratio)” value was -4.17.
As to A20C C32G G59C C85U C95G A97G G140A U151C, the “polymerase ribozyme fitness (log ratio)” value was at most -4.2.
In the case of A19U G42U A113G A121U G124C U148A it was at most -4.2; in that of A20C G48U G59A A119U U135A U146C, -2.07.
In the case of A20G A52C, the “polymerase ribozyme fitness (log ratio)” value is -1.28.
On to A19U A26C C38U A89G A98U A107C, for which the “polymerase ribozyme fitness (log ratio)” value was at most -4.2.
As to A19G C96U U101G, the “polymerase ribozyme fitness (log ratio)” value was -0.801.
For the variant A19U C36U G86C C93U G100A G126C, the “polymerase ribozyme fitness (log ratio)” value is at most -4.2.
For A20G G68U G126U C132A, the “polymerase ribozyme fitness (log ratio)” value was at most -4.2.
